Reference: the supplement of paper PMC9732359
± gives the uncertainty stated by the source.

Assay: protein stability index of a GFP-peptide fusion (yeast GPS) (PSI 1-4); higher = more stable; sorted into four equal gates, so the index is relative within each strain
How it was run: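 The protein stability index combines read frequencies across sorting gates, each weighted by its gate number and then summed. To obtain those frequencies, a pooled yeast library of GFP fusions to tiled 17-residue yeast protein peptides, on a plasmid also expressing Cherry, was grown to mid-log phase in leucine-free medium. The cells were sorted into four equal gates by GFP/Cherry ratio before plasmid amplification by PCR and Illumina sequencing.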

Sequence | protein stability index (doa10∆) | protein stability index (pdr5∆) | protein stability index (san1∆) | protein stability index (ubr1∆)
PIKADKDYSQILKEEFP [RPN5] | 3 ± 0.1 | 2.46 ± 0.079 | 2.18 ± 0.13 | 2.69 ± 0.062
PIKNRTSKSFSKLLYDD [SIN4] | 2.63 ± 0.07 | 2.73 ± 0.045 | 2.22 ± 0.086 | 2.64 ± 0.048
PIPFEFQAVIQKSINHP [SNF2] | 2.67 ± 0.11 | 2.61 ± 0.081 | 2.37 ± 0.077 | 2.86 ± 0.057
PIPSKPTLFDLAFNYIT [SRP68] | 1.64 ± 0.051 | 1.54 ± 0.046 | 1.74 ± 0.071 | 2.02 ± 0.046
PIPVQGEIEIKPNEEEE [RPN13] | 2.45 ± 0.081 | 2.59 ± 0.067 | 2.58 ± 0.15 | 2.67 ± 0.1
PKALRFDRLVAGQIPTG [FAS2] | 2.15 ± 0.18 |  | 2.59 ± 0.25 | 
PKCHSRENVFFQSQQRR [RPB9] | 3.14 ± 0.088 | 2.65 ± 0.081 | 2.22 ± 0.089 | 2.65 ± 0.054
PKDFSPNFTGIDKLMLS [SSN2] | 1.42 ± 0.17 | 1.38 ± 0.15 | 1.85 ± 0.27 | 1.26 ± 0.11
PKKALKVKAGVRSANED [RRP43] | 2.84 ± 0.1 | 2.35 ± 0.088 | 2.81 ± 0.069 | 2.41 ± 0.051
PKKHLSETADETLENNI [RPN11] | 3.15 ± 0.1 | 3.13 ± 0.098 | 3.17 ± 0.077 | 2.84 ± 0.088
PKMQWSLQDNSAAINNE [RPN4] | 3.15 ± 0.063 | 3.2 ± 0.053 | 2.96 ± 0.048 | 3.15 ± 0.041
PKNKLVPTLEAKRDYII [FAS1] | 1.71 ± 0.071 | 1.59 ± 0.1 | 2.63 ± 0.098 | 2.15 ± 0.11
PKSTLDNWRREFLKWTP [ISW2] |  | 3.15 ± 0.15 |  | 2.76 ± 0.09
PKVKEIKTVVLVPQLGH [PRP8] | 1.93 ± 0.088 | 2.25 ± 0.08 | 1.94 ± 0.14 | 2.31 ± 0.048
PKVPVSAAATPSLNKTI [GAL11] | 2.5 ± 0.039 | 2.77 ± 0.033 | 2.67 ± 0.035 | 2.63 ± 0.036
PKVTPQMMQQAQQKLKQ [SRP54] | 1.42 ± 0.25 | 1.18 ± 0.18 |  | 1.48 ± 0.24
PLDEIPVDVDFNLDLDD [REC8] | 2.7 ± 0.1 | 2.43 ± 0.066 | 2.24 ± 0.088 | 2.25 ± 0.066
PLDRLENVLAIGIAGAH [SKI6] | 1.26 ± 0.085 | 1.78 ± 0.092 | 1.54 ± 0.18 | 1.85 ± 0.12
PLDSKDENFASVSPAGP [SNF2] | 3.05 ± 0.11 | 3.12 ± 0.092 | 3.15 ± 0.071 | 2.99 ± 0.06
PLFIVEDDESLGHKELK [RPB2] | 3.34 ± 0.15 | 3.34 ± 0.15 | 2.77 ± 0.14 | 1.8 ± 0.097
PLHSGKTSLMDLLVIDS [SNU114] | 2.48 ± 0.068 | 2.75 ± 0.085 | 2.81 ± 0.1 | 2.47 ± 0.048
PLITRHCYPRQLCQITC [RRP46] | 1.89 ± 0.054 | 2.02 ± 0.049 | 1.92 ± 0.095 | 2.11 ± 0.044
PLIWQLLQSSIINKLIH [POP3] | 2 ± 0.059 | 2.38 ± 0.062 | 2.01 ± 0.096 | 1.84 ± 0.028
PLKLSGEGPFTVKFKHM [YMR129W/POM152] | 2.92 ± 0.064 | 2.93 ± 0.064 | 2.75 ± 0.086 | 2.72 ± 0.076
PLNDGFVDLVEHFLKLN [YML103C/NUP188] | 1.84 ± 0.28 | 1.63 ± 0.12 |  | 2.53 ± 0.13
PLPLDLNVQVWHIEETG [ITC1] | 1.87 ± 0.063 | 2.17 ± 0.059 | 2.18 ± 0.089 | 2.17 ± 0.071
PLRGALATYGLTIDDLG [FAS2] | 2.38 ± 0.087 | 2.51 ± 0.1 | 2.19 ± 0.1 | 2.72 ± 0.079

Sequence | protein stability index (doa10∆) | protein stability index (pdr5∆) | protein stability index (san1∆) | protein stability index (ubr1∆)
PLVLLQQIPLLCYMAPM [POP3] | 1.72 ± 0.053 | 1.59 ± 0.061 | 1.85 ± 0.074 | 1.92 ± 0.054
PNCPRPNMSICIFGDAF [RPL1A] | 1.75 ± 0.083 | 1.55 ± 0.06 | 1.55 ± 0.2 | 1.53 ± 0.04
PNIADYITAKNNVVINF [PRP8] | 2.11 ± 0.087 | 1.26 ± 0.065 | 1.43 ± 0.28 | 1.26 ± 0.067
PNIFPNLTYYNEKLECI [ITC1] | 2.6 ± 0.07 | 2.58 ± 0.067 | 2.59 ± 0.056 | 2.68 ± 0.05
PNMSICIFGDAFDVDRA [RPL1A] | 2.78 ± 0.071 | 2.52 ± 0.072 | 1.78 ± 0.084 | 2.4 ± 0.089
PNSERETDHANTENNDP [IRR1] | 2.69 ± 0.073 | 2.87 ± 0.052 | 2.73 ± 0.045 | 2.88 ± 0.044
PNSERSGTPTLKKNIEP [YOR098C/NUP1] | 3.32 ± 0.14 | 3.26 ± 0.097 | 2.72 ± 0.24 | 3.07 ± 0.082
PNSNKTHTEQNNPPKPQ [SNF2] | 2.78 ± 0.056 | 3.07 ± 0.083 | 3.06 ± 0.069 | 3.06 ± 0.052
PPGLDALVKPETQFKLS [CDC53] | 2.82 ± 0.058 | 2.84 ± 0.055 | 3.07 ± 0.036 | 2.99 ± 0.046
PPLLVYKWTQGINNLSE [PRP8] | 3.09 ± 0.12 | 3.11 ± 0.073 | 3.29 ± 0.076 | 3.25 ± 0.098
PPPPPPPGYEIEELDNP [PRP8] | 2.87 ± 0.046 | 2.98 ± 0.04 | 3.04 ± 0.048 | 3.03 ± 0.033
PPPYVKFFTQSNLEKLP [MED7] | 2.25 ± 0.036 | 2.29 ± 0.04 | 2.41 ± 0.049 | 2.49 ± 0.027
PPTTSNLIIFLYKFNGW [YML103C/NUP188] | 1.76 ± 0.046 | 2.26 ± 0.045 | 2.32 ± 0.058 | 2.53 ± 0.051
PQALRVLRLKPGRKYTT [RPL16A] | 2.97 ± 0.044 | 3.05 ± 0.046 | 3.13 ± 0.046 | 3.21 ± 0.05
PQDLTFNAGSNPPSYQS [RPB7] | 2.96 ± 0.17 | 2.99 ± 0.11 | 3.1 ± 0.17 | 2.86 ± 0.096
PQIVVPDAQNELPKFIL [DIS3] | 2.9 ± 0.049 | 3.09 ± 0.06 | 2.92 ± 0.043 | 2.98 ± 0.077
PQLISDKFSPEDGLGPL [ARP7] | 2.84 ± 0.072 | 2.83 ± 0.067 | 2.6 ± 0.062 | 2.61 ± 0.055
PQQPMVKTKTIELIDYD [RET1] | 2.89 ± 0.14 | 3.18 ± 0.2 | 2.94 ± 0.075 | 2.97 ± 0.058
PQWKRHLEEYGYLIQVL [YCS4] | 2.27 ± 0.052 | 2.73 ± 0.057 | 2.02 ± 0.095 | 2.5 ± 0.047
PRDVIKGKDFEITAKEV [FAS1] | 3.27 ± 0.095 | 3.41 ± 0.12 | 3.24 ± 0.07 | 3.36 ± 0.083
PRFLNKQERSKQERLKE [PRP28] | 1.91 ± 0.091 | 2.53 ± 0.13 | 3.34 ± 0.11 | 2.13 ± 0.089
PRLGSIDRNLKCQTCQE [RPO21] | 2.01 ± 0.099 | 1.7 ± 0.056 | 2.18 ± 0.12 | 2.67 ± 0.069
PRLSHLSLTAVPSFLRP [GRR1] | 2.09 ± 0.042 | 1.93 ± 0.062 | 1.79 ± 0.074 | 2.18 ± 0.045
PRMASVFENYVKKTGEN [CDC53] | 3.46 ± 0.11 | 3.4 ± 0.087 | 3.54 ± 0.065 | 3.47 ± 0.049
PRRDGERKRKSVRGAIV [RPS6A] | 3.16 ± 0.099 | 3.29 ± 0.075 | 3.33 ± 0.072 | 3.05 ± 0.087
PRTLIGHRATVTDIAII [RPN14] | 3.24 ± 0.18 | 3.54 ± 0.2 | 3.29 ± 0.1 | 3.18 ± 0.094
